Consider one molecule from patent publication US20200174002A1 (ONCOTHERAPY SCIENCE, published 2020).

The target in assay [1] is T1, soluble FZD10 protein without the signal peptide (the region of amino acids 21 to 161) (human, UniProt Q9ULW2 21-161).
T1 construct: Immunogen and ELISA screening antigen; also called recombinant human FZD10 protein; N-terminal extracellular domain peptide of FZD10
T1 sequence: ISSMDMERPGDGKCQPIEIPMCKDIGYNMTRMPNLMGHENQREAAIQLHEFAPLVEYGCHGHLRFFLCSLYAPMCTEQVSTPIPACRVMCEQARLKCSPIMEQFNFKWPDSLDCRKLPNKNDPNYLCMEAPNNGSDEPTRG
The experiment in a line: ELISA screening of hybridomas on soluble FZD10 protein.

The target in assay [2] is T2, full length FZD10 protein (human) (human, UniProt Q9ULW2 21-581).
T2 construct: Live cells in flow cytometry; formalin-fixed paraffin sections in IHC
T2 sequence: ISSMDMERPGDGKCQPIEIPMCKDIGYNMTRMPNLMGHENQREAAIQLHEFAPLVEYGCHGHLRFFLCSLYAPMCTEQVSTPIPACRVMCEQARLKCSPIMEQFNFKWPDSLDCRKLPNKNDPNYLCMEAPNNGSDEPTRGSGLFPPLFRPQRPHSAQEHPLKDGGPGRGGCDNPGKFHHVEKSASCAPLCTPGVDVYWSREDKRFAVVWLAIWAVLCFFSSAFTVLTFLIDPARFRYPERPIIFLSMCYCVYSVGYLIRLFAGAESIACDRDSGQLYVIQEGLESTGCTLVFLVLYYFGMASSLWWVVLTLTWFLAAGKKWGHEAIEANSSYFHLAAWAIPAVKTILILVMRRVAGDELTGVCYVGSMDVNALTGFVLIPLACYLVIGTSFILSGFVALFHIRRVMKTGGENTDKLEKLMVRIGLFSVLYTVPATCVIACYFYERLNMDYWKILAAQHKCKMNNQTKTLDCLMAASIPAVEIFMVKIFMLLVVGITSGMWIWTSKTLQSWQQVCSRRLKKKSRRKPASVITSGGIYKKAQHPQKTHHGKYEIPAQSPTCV
In words: immunohistochemical staining, paraffin section of a clinical lung cancer specimen. The method, then: For antigen retrieval treatment, sections immersed in Antigen Retrieval Solution pH9 (Nichirei Biosciences Inc.) were incubated at 125° C. for 30 seconds for FZD10/DLD1 and Mock/DLD1, and at 95° C. for 40 minutes for SYO1, T.T, H727, LoVo, COLO201, and clinical specimens. After incubation, they were allowed to stand at room temperature for 20 minutes, and then washed with running water for five minutes. The sections were immersed in 3.0% hydrogen peroxide for ten minutes to block endogenous peroxidases, and washed with Wash Buffer (TBS-T(Takara Bio)) for five minutes three times. Furthermore, to block nonspecific reactions, an appropriate amount of Protein Block Solution (Dako) was added dropwise onto the sections, and they were allowed to stand for ten minutes. […]
The specificity of the anti-FZD10 antibody of the present invention (10A8H4G4) in immunohistochemical staining was evaluated using paraffin sections prepared from mouse xenograft tumors of cancer cell lines and clinical lung cancer specimens. The expression of FZD10 protein and RNA in paraffin sections prepared from mouse xenograft tumors of SYO-1 and COLO201 and in cancerous and non-cancerous regions of clinical lung cancer specimens 1 to 6 was detected by immunohistochemical staining and real-time PCR, respectively, and the results are shown in FIG. 4.

B1: anti-FZD10 antibody (10A8H4G4) (antibody, V domains shown)
VH: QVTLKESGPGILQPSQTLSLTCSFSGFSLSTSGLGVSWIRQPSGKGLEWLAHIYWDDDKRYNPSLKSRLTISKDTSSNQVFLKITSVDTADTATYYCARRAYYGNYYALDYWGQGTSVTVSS
VL: DIVMTQSPSSLTVTAGEKVTMSCKSSQSLLNSGNQKNYLTWYQQKPGQPPKLLIYWASTRKSGVPDRFTGSGSGTDFTLTISSVQAEDLAVYYCQNDYSYPVTFGAGTKLELKR
notes: Mouse monoclonal antibody from hybridoma 10A8H4G4, purified from culture fluid on a Protein A column; it was detected with anti-mouse IgG (H+L); also called clone 10A8H4G4; FZD10Ab(10A8H4G4)
For B1, the binding result in assay [1] and in assay [2] was “binds” each time.
